Test results taken from US6558918.

Legend:
[1] = biological target: wild-type Cdc2/cyclin B1 complex (UniProt P06493)
Cdc2-AF/CyclinB1 complex = Cdc2-AF/CyclinB1 complex (UniProt P06493)
[2] = biological target: kinase-deficient Cdc2 mutant (K-) complexed with cyclin B1 (UniProt P06493)
[3] = biological target: Cdc2-F15/CyclinB1 complex (UniProt P06493)
Sequence of Cdc2-F15/CyclinB1 complex (P06493 whole entry, looked up, one chain of several): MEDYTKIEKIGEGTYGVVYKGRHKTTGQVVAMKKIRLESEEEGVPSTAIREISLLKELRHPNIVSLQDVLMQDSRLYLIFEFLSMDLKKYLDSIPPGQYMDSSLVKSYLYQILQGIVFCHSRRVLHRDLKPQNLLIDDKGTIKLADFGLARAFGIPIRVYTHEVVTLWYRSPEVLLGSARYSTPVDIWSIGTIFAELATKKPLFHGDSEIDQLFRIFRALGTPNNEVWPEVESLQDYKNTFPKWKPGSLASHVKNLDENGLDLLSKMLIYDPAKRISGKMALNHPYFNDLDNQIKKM

Sequence of full-length human Wee1 with N-terminal Glu-Glu tag, expressed in Sf9 cells (chain, as listed by the source): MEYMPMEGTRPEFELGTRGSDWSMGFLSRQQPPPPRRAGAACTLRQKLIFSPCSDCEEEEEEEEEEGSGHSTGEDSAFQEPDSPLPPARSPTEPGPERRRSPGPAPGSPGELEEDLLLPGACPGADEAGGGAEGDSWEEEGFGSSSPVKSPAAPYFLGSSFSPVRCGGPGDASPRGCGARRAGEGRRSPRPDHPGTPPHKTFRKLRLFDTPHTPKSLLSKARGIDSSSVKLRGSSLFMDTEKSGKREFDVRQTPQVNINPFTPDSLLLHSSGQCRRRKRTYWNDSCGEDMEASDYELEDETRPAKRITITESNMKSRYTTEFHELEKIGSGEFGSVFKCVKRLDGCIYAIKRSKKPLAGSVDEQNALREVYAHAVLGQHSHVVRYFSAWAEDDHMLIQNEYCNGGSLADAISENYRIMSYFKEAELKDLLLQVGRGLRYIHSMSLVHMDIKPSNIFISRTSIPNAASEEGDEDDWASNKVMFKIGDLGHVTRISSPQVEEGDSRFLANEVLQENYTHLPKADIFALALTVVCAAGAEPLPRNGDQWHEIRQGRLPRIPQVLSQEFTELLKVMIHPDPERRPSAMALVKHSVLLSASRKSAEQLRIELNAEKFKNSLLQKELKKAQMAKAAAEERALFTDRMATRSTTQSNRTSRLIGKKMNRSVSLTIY
Sequence of Cdc2-AF/CyclinB1 complex (P06493 whole entry, looked up, one chain of several): as the sequence (P06493 whole entry, looked up, one chain of several) above
Sequence of wild-type Cdc2/cyclin B1 complex (P06493 whole entry, looked up, one chain of several): as above
Sequence of kinase-deficient Cdc2 mutant (K-) complexed with cyclin B1 (P06493 whole entry, looked up, change not shown, one chain of several): as the sequence (P06493 whole entry, looked up, one chain of several) above

## full-length human Wee1 with N-terminal Glu-Glu tag, expressed in Sf9 cells
[1]
  histone H1 kinase activity of Cdc2/CyclinB1 in mixed Sf9 lysates: the addition of Wee1 lysates effectively inhibited Cdc2/CyclinB1 kinase activation
Cdc2-AF/CyclinB1 complex
  histone H1 kinase activity in mixed Sf9 lysates: Cdc2-F15/CyclinB1 and Cdc2-AF/CylinB1 complexes retained full activity in the presence of Wee1 lysates
[2]
  phosphoamino acid analysis of 32P-labeled Cdc2: the Tyrosine 15 residue was readily phosphorylated by full-length Wee1
[3]
  histone H1 kinase activity in mixed Sf9 lysates: Cdc2-F15/CyclinB1 and Cdc2-AF/CylinB1 complexes retained full activity in the presence of Wee1 lysates
